These results are taken from patent publication US20260097138A1, “BIOMATERIAL COATED NANOSTRUCTURES FOR PHOTOACOUSTIC IMAGING AND PHOTOTHERMAL THERAPY OF TUMOR LESIONS” (OSPEDALE SAN RAFFAELE S.R.L., priority 2022, published 2026).

Series [1] can be described thus: In vitro PAI of GNRs in agar drops. Conditions: agar drop, no IL. An excerpt: (§1) US and PAI of GNRs@Chit and GNRs@Chit-Iso4: High-resolution US and PA imaging have been acquired using the Vevo LAZR-X platform (FUJIFILM VisualSonics, Inc., Toronto, ON, Canada). The imaging platform includes a high frequency US system (Vevo 3100) combined with an Nd:YAG nano-second pulsed laser with repetition rate of 20 Hz. The linear US transducer array Mx 550D consists of 256 elements with a nominal center frequency of 40 MHz (25-55 MHz bandwidth) and a spatial resolution of 40 μm with a maximum imaging depth of 15 mm. Light from the laser is delivered to the tissue through optical fibers mounted on either side of the transducer. During volumetric US-PA acquisitions, a stepper motor is used for the linear translation of the US transducer and optical fibers along the sample. The linear stepper motor moves in steps of a minimum of 0:1 mm while capturing 2-D parallel images, for a maximum 3D range distance of 6.4 cm.
(§2) 3D B mode scan was carried out for in vitro (drop) and in vivo (mouse bladder) studies. […]
In vitro PAI of GNRs was carried out as follows: GNRs (30 μl in DPBS with calcium and magnesium) were mixed with a 1% agar solution (30 μl), the mixture was then poured on Parafilm® M (Sigma) and left to solidify in a humidified chamber (FIG. 15). […] PA and US data have been analyzed using VevoLab 3.2.5 software (FIG. 15).

Series [2] deals with MB49-Luc derived orthotopic bladder tumor. Nature of the series: PAI of orthotopic MB49-Luc bladder tumor after intravesical instillation. Conditions: for detection of lesions undetectable by US imaging: small orthotopic tumor. In kind it is in vivo, mice. On the procedure: Murine orthotopic bladder tumor model: All procedures and studies involving mice were approved by the Institutional Animal Care and Use Committee of San Raffaele Scientific Institute and performed according to the prescribed guidelines (IACUC, approval number 942). Female albino C57BL/6J mice (9 weeks old, weighing about 20 g, Charles River Laboratories, Italy) were anesthetized with ketamine (80 mg/kg) and xylazine (15 mg/kg) and kept in dorsal position. Using a 24-gauge catheter, the bladder of each mouse was emptied and instilled with or without MB49-Luc cells (10^5 cells/100 μl in DPBS). Thirty minutes later the catheter was removed, and mice were allowed to recover and returned to their cage. Tumor growth was monitored by measuring the tumor volume through US imaging (see below) and in vivo bioluminescent quantification after administration of luciferin (15 mg/kg, intra peritoneum) using the non-invasive In Vivo Imaging System (IVIS, PerkinElmer, USA).
as §1
3D B mode scan was carried out for in vitro (drop) and in vivo (mouse bladder) studies. The photoacoustic spectra between 680 nm and 970 nm were scanned with a step size of 5 nm; for the in vivo studies (murine bladder) the 3D multispectral PA scans were acquired selecting PA spectral curve of tissue components melanin, deoxy- and oxy-generated blood, and GNRs; the processed wavelengths (680; 722; 764; 810; 924; 970 nm) were automatically selected from the spectral curve used to spectrally unmix the GNRs signal from other endogenous tissue chromophore signals such as oxy, deoxy hemoglobin. The algorithm reported by Luke et al was used to select these wavelengths which is ideal for separating the signal from GNRs from other endogenous absorbers.
Data analyses were conducted using the Vevo® Lab software; volumes of interest were obtained by manually drawing Volumes of Interest (VOIs) on 3D B-mode images. GNRs, melanin, oxy- and deoxy-hemoglobin content were estimated through spectral unmixing analyses of the spectroscopic data.

A short description of series [3]: Stability of GNRs in human urine. The class given is physicochemical. Conditions: 37° C. As for the experimental part:
Stability of GNRs@Chit and GNRs@Chit-Iso4 in human urine: The stability of GNRs@Chit-Iso4 in human urine was assessed by diluting the GNR solution (0.725 mM of Au in 10 ml of water) with human urine samples (10 ml) collected from 10 healthy adult volunteers (4 males and 6 females) and placed under stirring in a water bath at 37° C. At various time points, 1 mL of the mixture was withdrawn, diluted in 10 mL of cold water (+4° C.) and subjected to VIS-NIR. A urine solution (50% in water) was used as the blank reference in the spectrometric analysis.

Series [4] can be described thus: Physicochemical characterization of GNRs (VIS-NIR, TEM, zeta potential). As for the experimental part: Characterization of the physicochemical properties of GNRs@CTAB, GNRs@Chit and functionalized GNRs@Chit-Iso4: Gold concentration was determined by flame atomic absorption spectroscopy (FAAS) using a SpectraAA 100 Varian spectrometer (Agilent Technologies, Santa Clara, USA). Gold nanorods (100 μL) were dissolved in aqua regia (3 mL) and diluted to 10 mL with ultrapure water prior to analysis. For the calibration of the FAAS analysis, Au standard solutions at 1, 2, 5 and 10 mg/L were prepared by diluting the appropriate amounts of […] TraceCERT® solutions in 30% aqua regia.
VIS-NIR absorption spectra (range 400-1100 nm) were recorded using a Cary 3500 UV-VIS-NIR modular spectrometer (Agilent Technologies, Santa Clara, USA) using a 1 cm path-length plastic cuvette.
Transmission Electron Microscopy (TEM) was performed using a TEM/STEM FEI TECNAI F20 operating at 200 keV equipped with a probe for energy-dispersing x-ray spectroscopy (EDX), selected-area electron diffraction (SAED) and High Angle Annular Dark Field Detector (HAADF). Before the analysis, samples were placed on a continuous-carbon film, supported on a copper grid and dried at 120° C.
Zeta potential measurements were performed using a Zetasizer-nano-S (Malvern Panalytical, Malvern, UK) in DTS1060C-Clear disposable zeta cells, at 25° C.

A further series relates to MB49-Luc cells. Nature of the series: Cell adhesion assay on coated microtiter plates. In kind it is cell-based, murine. As for the experimental part:
(§3) The plates were washed and blocked with 2% BSA in DMEM or RPMI-1640 (200 μl/well, 1 h). MB49-Luc and 5637 cells were detached with DPBS-E, washed twice with DPBS, and suspended in DMEM or RPMI-1640 containing 0.1% BSA (binding buffer-3), and added to the coated-plates (1.5×10^5 cells/well, 100 μl). After 1-2 h of incubation at 37° C., 5% CO2, the plates were washed with binding buffer-3. Adherent cells were fixed and stained with 0.5% crystal violet in 20% methanol. After washing with water, the dye was extracted from cells using a 10% acetic acid solution (140 μl/well) and the absorbance at 570 nm was measured using a microplate reader.

Series [5] in a line: In vivo PAI of murine bladder after intravesical instillation. Details: species or system mice. Conditions: three cycles of manual handling, two washes.
Description: as §1, §2

The next series relates to 5637 cells. Nature of the series: Cell adhesion assay on coated microtiter plates. The class given is cell-based, human. The following applies: crystal violet stain. As for the experimental part:
as §3

Several values for one entry are separate records, joined by “and”; a condition that tells them apart may be missing. Equal entries are not always repeated.

With “GNRs@Chit-Iso4: gold nanorods coated with thiolated chitosan, coupled via NHS-PEG12-maleimide crosslinker to the Iso4 peptide”, the “behaviour under pulsed laser with light attenuators without IL” value in series [1] was “underwent reshaping”. Besides, in series [2] (3 nmol Au, two washing steps, tumor on the left side), the “PA signal at tumor without manual handling of urine” value is “lack of PA signal”. In addition, the “volume of small tumor detected” value in series [2] (4 days after MB49-Luc cell implantation) was determined as 7.9 mm^3. In addition, the “detection of lesions undetectable by US imaging” value was “can reveal the presence of lesions undetectable with US imaging and bioluminescence” in series [2]; “a neoplastic region in the upper region of the bladder that was undetectable by US scan” in series [2] (listed as GNR@Chit-Iso4). Besides, in series [2] (well-established tumor, three cycles of manual handling, two washes), the “binding in tumor bearing mice by PAI” value was “to the three well-established neoplastic lesions at the bottom, lateral side and upper part of the bladder, and not present in non-neoplastic tissue”. The “incubation time in urine without dramatic loss of optical properties in the NIR” value in series [3] is on record as “at least 2 h”. Also, the “reduction of the absorbance at ~800 nm” value in series [3] (human urine, first 40 minutes) was determined as 14%. The “further reduction of the absorbance at ~800 nm” value in series [3] (human urine, following 80 minutes) is listed as 7%. Moreover, the “change in the shape of the LSPR spectrum” value in series [3] (human urine, up to 2 h) is “No significant change”. Moreover, the GNRs length in series [4] (TEM) was 90.2±7.2 nm and 90.2 ± 7.2d nm. Besides, in series [4] (TEM), the GNRs width is 24.9±2.6 nm and 24.9 ± 2.6d nm. The “λmax (wavelength of max absorbance, longitudinal-LSPR peak)” value in series [4] (VIS-NIR) was 802 nm. In series [4] (calculated as the length/width ratio), the “Aspect Ratio” value was 3.62±0.67 and 3.6 ± 0.6. In addition, the “increase of cell adhesion caused by urine” value in the series with MB49-Luc cells (MB49-Luc cells in DMEM medium containing 25-75% urine) is listed as roughly 20%. For the same substance, the “cell adhesion to solid phase coated with the substance” value with MB49-Luc cells (MB49-Luc cells, crystal violet stain) is “induced cell adhesion and spreading”; with 5637 cells, “induced cell adhesion and spreading”. Also, the “binding in healthy mice” value in series [5] is on record as “no binding”.
